Reference: publication PMC4144780, “MSRB7 reverses oxidation of GSTF2/3 to confer tolerance of Arabidopsis thaliana to oxidative stress” (Journal of Experimental Botany, 2014)

Columns and labels:
[1] = target: T1, oxidized His–GSTF2 (A. thaliana, UniProt P46422 1-212, oxidized (positions not stated for this sample)); assay: co-IP; recombinant His–flag–MSRB7 and oxidized His–GSTs incubated with rabbit anti-flag antibody in IP buffer (15 mM HEPES pH 7.4, 1 mM EDTA, 1 mM DTT, 10 mM MgCl2, 30 mM KCl) 1 h at room temperature; Protein G–Sepharose; blot with mouse anti-His antibody; settings: both partners purified
T1 construct: Glutathione S-transferase F2 (GSTF2), A. thaliana, locus At4g02520; cloned into pET-53-DEST; How it was oxidized is told only for the activity assay (0.5 mM HOCl, 40 min, stopped with 5 mM Met); also called recombinant GSTF2; MetO–GSTF2
T1 sequence (looked up): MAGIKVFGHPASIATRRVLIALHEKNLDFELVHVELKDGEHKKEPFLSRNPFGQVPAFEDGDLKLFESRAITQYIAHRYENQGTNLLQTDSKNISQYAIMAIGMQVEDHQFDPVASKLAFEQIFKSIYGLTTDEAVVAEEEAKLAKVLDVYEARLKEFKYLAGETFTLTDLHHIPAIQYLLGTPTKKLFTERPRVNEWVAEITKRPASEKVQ

[2] = target: T2, oxidized His–GSTF3 (A. thaliana, UniProt Q9SLM6 1-212, oxidized (positions not stated for this sample)); assay: as above; settings: both partners purified
T2 construct: Glutathione S-transferase F3 (GSTF3), A. thaliana, locus At2g02930; cloned into pET-53-DEST; How it was oxidized is told only for the activity assay (0.5 mM HOCl, 40 min, stopped with 5 mM Met); also called recombinant GSTF3; MetO–GSTF3
T2 sequence (looked up): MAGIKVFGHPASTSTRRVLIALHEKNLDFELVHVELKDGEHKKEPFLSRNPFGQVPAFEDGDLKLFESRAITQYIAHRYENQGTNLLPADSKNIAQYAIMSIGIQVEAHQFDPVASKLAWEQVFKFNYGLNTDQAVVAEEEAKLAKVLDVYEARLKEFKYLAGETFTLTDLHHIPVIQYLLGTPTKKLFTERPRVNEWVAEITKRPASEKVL

B1: His–flag–MSRB7 (enzyme, A. thaliana, UniProt Q8VY86 1-144, looked up)
chain: MAAMTAAAVPATGSFQKQDEEWRAVLSPEQFRVLRLKGTDKRGKGEFTKKFEEGTYSCAGCGTALYKSTTKFDSGCGWPAFFDAIPGAIKQTPEAGGRRMEITCAVCDGHLGHVFKGEGYSTPTDQRHCVNSVSLKFSSAGSSQ
notes: Methionine sulfoxide reductase B7 (MSRB7), A. thaliana, locus At4g21830; N terminus fused with a flag tag, cloned into pET-53-DEST; also called recombinant MSRB7; not shown: flag, N-terminal, kept
binding result [1]: binds
binding result [2]: binds
